This note sets out measurements from patent publication US20210032351A1 (XDCEXPLORER SHANGHAI, published 2021).

Assay [1] addresses T1, human EGFRvIII-hFc protein (human, UniProt P00533 25-645).
T1 construct: extracellular domain; made in HEK293 cells, purified on protein A; also called immunogen A; hFc-tagged EGFRvIII protein; not shown: human IgG Fc fragment (hFc) of the pCpC vector
Description: ELISA, coated EGFRvIII-hFc, antibody 1 nM. The essentials: (§1)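 The antibody is applied to BSA-blocked wells pre-coated with EGFRvIII-hFc (1.0 μg/mL, overnight, 4° C) for 2 h at 37° C. Detection uses an HRP secondary (2 h, 37° C), TMB for 30 min, HCl stop and absorbance at 450 nm.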
(In general: In an ELISA, binding on a coated surface is turned into a signal by an enzyme label.)

Assay [2] addresses T1, human EGFRvIII-hFc protein. Description: ELISA, coated EGFRvIII-hFc, antibody 10 nM. The method, boiled down:
as §1

For another assay, the target named is T2, pep22.
T2 peptide: ADSYEMEEDGVRKCKKK(Biotin)
Description: polypeptide dot matrix ELISA.

Another assay has as its target T3, pep24 (cysteine pairing not given here).
T3 peptide: SYEMEEDGVRKCKKCEK(Biotin)
Kind of assay: polypeptide dot matrix ELISA.

The next assay concerns the target T4, pep18.
T4 peptide: RACGADSYEMEEDGVRK(Biotin)
Description: polypeptide dot matrix ELISA.

In another assay the target is T5, pep09 (cysteine pairing not given here).
T5 peptide: VVTDHGSCVRACGADSK(Biotin)
Description: polypeptide dot matrix ELISA.

Another assay has as its target T6, pep33 (cysteine pairing not given here).
T6 peptide: RKCKKCEGPCRKVCNGK(Biotin)
Description: polypeptide dot matrix ELISA.

The next assay deals with T7, pep28 (cysteine pairing not given here).
T7 peptide: EEDGVRKCKKCEGPCRK(Biotin)
Kind of assay: polypeptide dot matrix ELISA.

Another assay concerns the target T8, pep20 (cysteine pairing not given here).
T8 peptide: CGADSYEMEEDGVRKCK(Biotin)
Kind of assay: polypeptide dot matrix ELISA.

For a further assay, the target named is T9, pep11 (cysteine pairing not given here).
T9 peptide: TDHGSCVRACGADSYEK(Biotin)
Description: polypeptide dot matrix ELISA.

In the next assay the target is T10, pep05 (cysteine pairing not given here).
T10 peptide: KGNYVVTDHGSCVRACK(Biotin)
Kind of assay: polypeptide dot matrix ELISA.

A further assay has as its target T11, pep27 (cysteine pairing not given here).
T11 peptide: MEEDGVRKCKKCEGPCK(Biotin)
Description: polypeptide dot matrix ELISA.

The target of another assay is T12, pep07 (cysteine pairing not given here).
T12 peptide: NYVVTDHGSCVRACGAK(Biotin)
Kind of assay: polypeptide dot matrix ELISA.

The next assay concerns the target T13, pep08 (cysteine pairing not given here).
T13 peptide: YVVTDHGSCVRACGADK(Biotin)
Kind of assay: polypeptide dot matrix ELISA.

For another assay, the target named is T14, pep04.
T14 peptide: KKGNYVVTDHGSCVRAK(Biotin)
Description: polypeptide dot matrix ELISA.

A further assay has as its target T15, pep26 (cysteine pairing not given here).
T15 peptide: EMEEDGVRKCKKCEGPK(Biotin)
Description: polypeptide dot matrix ELISA.

The target of a further assay is T16, pep01.
T16 peptide: LEEKKGNYVVTDHGSCK(Biotin)
Kind of assay: polypeptide dot matrix ELISA.

The target of another assay is T17, pep12 (cysteine pairing not given here).
T17 peptide: DHGSCVRACGADSYEMK(Biotin)
Description: polypeptide dot matrix ELISA.

The next assay deals with T18, pep31 (cysteine pairing not given here).
T18 peptide: GVRKCKKCEGPCRKVCK(Biotin)
Description: polypeptide dot matrix ELISA.

The next assay deals with T19, pep10 (cysteine pairing not given here).
T19 peptide: VTDHGSCVRACGADSYK(Biotin)
Kind of assay: polypeptide dot matrix ELISA.

Another assay concerns the target T20, pep29 (cysteine pairing not given here).
T20 peptide: EDGVRKCKKCEGPCRKK(Biotin)
Kind of assay: polypeptide dot matrix ELISA.

For assay [3], the target named is T21, human EGFRvIII-hFc protein (human, UniProt P00533 25-645).
T21 construct: extracellular domain; also called immunogen A; hFc-tagged EGFRvIII protein; not shown: human IgG Fc fragment (hFc) of the pCpC vector
Description: ELISA, EGFRvIII-hFc coated.

In assay [4] the target is T22, human wild-type EGFR protein on the cell surface (human, UniProt P00533 25-1210).
T22 construct: whole, on cells; Endogenous on A431, HEB, U87MG cells and normal human primary hepatocytes; transfected on CHOk1-EGFR cells; The cell is named under assay; also called A431; HEB
Description: FACS, MFI on A431 cells over MFI on normal primary hepatocytes; ratio of MFI on A431 to MFI on hepatocytes. In general terms: A flow cytometer gives signals particle by particle.

Ends that are not written are not given here. * marks the point of attachment. Biotin = O=C1N[C@H]2[C@H](CS[C@H]2CCCCC(=O)*)N1

B1: Murine anti-75G7 (antibody, V domains shown)
VH: EVQLQQSGPELVKPGASVKIPCKASGYTFTDYNMDWVKQSHGKSLEWIGDINPNNGDTIYNQKFKGKATLTVDKSSSTAYMELRSLTSEDTAVYYCARGDYDGYYPVYYAMDYWGQGTSVTVSS
VL: ENVLTQSPAIMSASPGEKVTMTCRASSSVSSSYLHWYQQKSGASPKLWIFSTSNLAAGVPARFSGSGSGTSYSLTVSSVEAEDAATYYCQQYSGYPLTFGAGTKLELK
notes: murine hybridoma antibody; also called 75G7C6
With B1, the OD450 nm in assay [1] amounted to 0.09; in [2] it was 0.19. Besides, the binding result with pep22, with pep24, in the assay with pep18, with pep09, with pep33 and in the assay with pep28 was “no binding” each time. Further, the binding result with pep20, in the assay with pep11, with pep05, with pep27, in the assay with pep07 and in the assay with pep08 was “no binding” throughout. In addition, the binding result with pep04, with pep26, with pep01, with pep12, with pep31 and in the assay with pep10 was “no binding” throughout. The binding result in the assay with pep29 is reported as “no binding”.

B2: Chimeric antibody 75G7 (antibody, human IgG1, V domains shown)
VH: B1 VH
VL: B1 VL
notes: also called c75G7C6; chimeric antibody c75G7C6
With B2, in assay [3], a half-maximal effect (EC50) was put at 500 pM and the “Maximum OD450 value” was 2.5 OD450. For the same molecule, the “Selective window (MFI A431/Hepatocytes)” value in assay [4] worked out at 26.5 fold.

For orientation: EC50 means the concentration that produces a half-maximal response. A high value points to weaker potency.
